We go through one molecule from publication PMC2965252.

The target in the data set is SF2/ASF (ΔRS domain) (UniProt Q07955 1-196). Briefly: EMSA. (Mobility shift assays separate free from complexed probe on a gel.)
Sequence of SF2/ASF (ΔRS domain) (Q07955 1-196, stated change not applied): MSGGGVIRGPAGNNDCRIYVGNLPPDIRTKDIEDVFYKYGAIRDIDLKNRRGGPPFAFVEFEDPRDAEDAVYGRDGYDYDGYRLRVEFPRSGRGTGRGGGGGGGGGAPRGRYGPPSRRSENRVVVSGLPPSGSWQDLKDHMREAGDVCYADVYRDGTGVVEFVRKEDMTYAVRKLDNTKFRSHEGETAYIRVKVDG

For GUGAUCAGGAUGCCCUUCUC (ssRNA) [CD200 exon 2 RNA with wild-type ESE], the binding result is “binds”.
